Measured values published in publication PMC6544907.
pKd: −log10 of the molar value.

Tests used:
[1] = biological target: human plasma plasminogen (human); assay: SPR
[2] = biological target: PAM_(NS88.2), recombinant full-length PAM of GAS strain NS88.2 (emm98.1) (Streptococcus pyogenes (GAS) strain NS88.2); assay: AUC
[3] = biological target: PAM_(NS223), recombinant full-length PAM of GAS strain NS223 (emm91) (Streptococcus pyogenes (GAS) strain NS223); assay: AUC
[4] = biological target: PAM_(NS455), recombinant full-length PAM of GAS strain NS455 (emm52) (Streptococcus pyogenes (GAS) strain NS455); assay: AUC
[5] = biological target: PAM_(SS1448), recombinant full-length PAM of GAS strain SS1448 (emm86.2) (Streptococcus pyogenes (GAS) strain SS1448); assay: AUC
[6] = biological target: PAM_(SS1572), recombinant full-length PAM of GAS strain SS1572 (emm223) (Streptococcus pyogenes (GAS) strain SS1572); assay: AUC
[7] = biological target: PAM_(SS1574), recombinant full-length PAM of GAS strain SS1574 (emm224) (Streptococcus pyogenes (GAS) strain SS1574); assay: AUC
[8] = biological target: PAM on cells of GAS strain SS1574 (Streptococcus pyogenes (endogenous in strain SS1574)) (UniProt P49054); assay: flow cytometry on cells

Substance “PAM_(AP53), recombinant full-length PAM of GAS strain AP53 (emm53) (natural protein)” has a pKd [1] of 8.80, a koff [1] of 0.00056 s⁻¹ and a kon [1] of 340000 M⁻¹ s⁻¹.
For “PAM_(AP53_short) (residues 42-175 of PAM_(AP53)) (domain or fragment)”, the koff [1] was 0.00077 s⁻¹.
“PAM_(NS88.2), recombinant full-length PAM of GAS strain NS88.2 (emm98.1) (natural protein)” showed a stoichiometry N [2] of 2, a pKd [1] of 8.92 and a koff [1] of 0.00023 s⁻¹.
For “PAM_(NS223), recombinant full-length PAM of GAS strain NS223 (emm91) (natural protein)”, the stoichiometry N [3] was 2, the pKd [1] was 8.85 and the koff [1] was 0.00033 s⁻¹. It also gave a kon [1] of 240000 M⁻¹ s⁻¹.
“PAM_(NS455), recombinant full-length PAM of GAS strain NS455 (emm52) (natural protein)” gave a stoichiometry N [4] of 2, a koff [1] of 0.00017 s⁻¹ and a kon [1] of 540000 M⁻¹ s⁻¹.
In the case of “PAM_(SS1448), recombinant full-length PAM of GAS strain SS1448 (emm86.2) (natural protein)”, the stoichiometry N [5] was 2, the pKd [1] was 7.55 and the koff [1] was 0.001 s⁻¹. For the same substance, the kon [1] was 36000 M⁻¹ s⁻¹.
In the case of “PAM_(SS1572), recombinant full-length PAM of GAS strain SS1572 (emm223) (natural protein)”, the stoichiometry N [6] was 2, the pKd [1] was 8.31 and the koff [1] was 0.00059 s⁻¹. For the same substance, the kon [1] was 120000 M⁻¹ s⁻¹.
“PAM_(SS1574), recombinant full-length PAM of GAS strain SS1574 (emm224) (natural protein)” was tested, and the stoichiometry N [7] was 2, the pKd [1] was 8.96 and the koff [1] was 0.00011 s⁻¹.
“human plasma plasminogen (natural protein)” was tested, and the amount of hPg bound, fold of strain AP53 [8] was < 2 fold.
